Consider two proteins from article PMC12096946, “Structural analysis of genetic variants of the human tumor suppressor PALB2 coiled-coil domain” (Bioscience Reports, 2025).

This data set concerns the molecule itself. Briefly: SEC; analytical size exclusion chromatography, Superdex75 column; 50 mM Na2HPO4, 150 mM NaCl, 5 mM DTT, pH 6.5; mass from molecular weight standards. A general note: Size exclusion chromatography separates by hydrodynamic size, large species first.

B1: human PALB2 coiled-coil domain (PALB2cc, residues 6-42) (domain or fragment, UniProt Q86YC2 6-42, looked up)
chain: GKPLSCEEKEKLKEKLAFLKREYSKTLARLQRAQRAE
notes: PALB2 (partner and localizer of BRCA2), human, N-terminal coiled-coil domain, residues 6-42 of the 1186-amino-acid protein; A methionine was introduced before the domain for CNBr cleavage of the His-GB1 tag; The NMR sample was uniformly 13C,15N labelled; The methods of the CD experiments say that PALB2cc peptides were synthesized; also called wt-PALB2cc; source: E. coli BL21-DE3, purified …
In the case of B1, the “stoichiometry N” value is 2.

B2: S10E, S29E-PALB2cc (peptide, UniProt Q86YC2 6-42, looked up)
chain: GKPLECEEKEKLKEKLAFLKREYEKTLARLQRAQRAE
notes: also called S10E, S29E phosphomimetic PALB2 coiled-coil domain; source: synthetic peptide (Lifetein technologies)
Take B2: the binding result is recorded as “binds”.

Broadly, the stoichiometry N is a count of units in the complex or per binding partner.
